16 molecules from PMC12955825 (Med (New York, N.Y.), 2025) can be followed below.

Bridge positions count the residues as written; N and C are the ends. Ends that are not written are not given here.

What all share (assay): phage-binding assay
Test [1] deals with T1, CASQ1, human recombinant protein (human, UniProt P31415 35-396).
T1 sequence (looked up): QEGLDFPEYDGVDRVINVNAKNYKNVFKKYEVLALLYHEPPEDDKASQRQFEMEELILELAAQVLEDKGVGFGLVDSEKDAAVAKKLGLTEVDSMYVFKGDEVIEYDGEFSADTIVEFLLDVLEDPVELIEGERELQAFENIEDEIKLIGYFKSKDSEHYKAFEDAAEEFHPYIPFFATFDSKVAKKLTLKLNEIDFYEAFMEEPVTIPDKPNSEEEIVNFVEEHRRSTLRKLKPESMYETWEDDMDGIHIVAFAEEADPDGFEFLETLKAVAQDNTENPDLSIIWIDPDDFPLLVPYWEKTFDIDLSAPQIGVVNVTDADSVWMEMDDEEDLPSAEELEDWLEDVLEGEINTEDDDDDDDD

The next test has as its target T2, calumenin (human, UniProt O43852 20-315).
T2 sequence (looked up): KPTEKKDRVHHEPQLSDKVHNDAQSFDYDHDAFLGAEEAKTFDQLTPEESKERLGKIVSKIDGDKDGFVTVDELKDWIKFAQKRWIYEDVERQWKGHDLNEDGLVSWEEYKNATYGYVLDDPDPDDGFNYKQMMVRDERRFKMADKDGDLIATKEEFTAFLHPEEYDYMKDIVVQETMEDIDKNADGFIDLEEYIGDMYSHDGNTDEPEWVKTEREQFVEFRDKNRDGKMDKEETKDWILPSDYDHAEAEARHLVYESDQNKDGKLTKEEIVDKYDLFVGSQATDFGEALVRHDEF

The target of test [2] is T3, fructose-bisphosphate aldolase A (human, UniProt P04075 1-364).
T3 sequence (looked up): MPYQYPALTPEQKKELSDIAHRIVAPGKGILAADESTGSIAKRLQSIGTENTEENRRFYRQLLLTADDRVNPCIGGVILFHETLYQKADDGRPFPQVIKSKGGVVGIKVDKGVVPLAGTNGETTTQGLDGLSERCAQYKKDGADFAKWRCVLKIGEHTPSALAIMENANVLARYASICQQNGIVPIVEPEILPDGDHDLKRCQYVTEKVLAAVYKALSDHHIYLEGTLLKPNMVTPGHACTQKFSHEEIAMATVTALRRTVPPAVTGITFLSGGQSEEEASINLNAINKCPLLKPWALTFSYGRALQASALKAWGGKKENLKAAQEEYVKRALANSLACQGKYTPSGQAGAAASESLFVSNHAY

The target in test [3] is 78 kDa glucose-regulated protein (human, UniProt P11021 19-654).
78 kDa glucose-regulated protein, sequence (P11021 19-654): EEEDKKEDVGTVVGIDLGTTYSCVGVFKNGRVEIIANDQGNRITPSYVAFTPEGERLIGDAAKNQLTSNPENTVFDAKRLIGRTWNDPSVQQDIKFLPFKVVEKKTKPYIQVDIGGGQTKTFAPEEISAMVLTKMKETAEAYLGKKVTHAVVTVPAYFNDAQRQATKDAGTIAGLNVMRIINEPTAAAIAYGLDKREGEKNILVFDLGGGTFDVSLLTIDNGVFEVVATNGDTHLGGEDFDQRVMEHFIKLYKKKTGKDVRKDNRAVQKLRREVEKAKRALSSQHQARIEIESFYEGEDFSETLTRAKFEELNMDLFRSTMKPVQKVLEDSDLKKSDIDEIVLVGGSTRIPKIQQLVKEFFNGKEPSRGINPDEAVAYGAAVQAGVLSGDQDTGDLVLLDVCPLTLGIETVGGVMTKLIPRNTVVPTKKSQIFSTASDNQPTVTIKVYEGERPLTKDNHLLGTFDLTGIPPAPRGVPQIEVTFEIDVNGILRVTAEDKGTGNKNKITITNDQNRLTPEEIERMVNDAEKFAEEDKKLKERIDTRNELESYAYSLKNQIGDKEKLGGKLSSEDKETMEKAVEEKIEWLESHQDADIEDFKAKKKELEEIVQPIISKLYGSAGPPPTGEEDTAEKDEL
Test [4] addresses T4, CRYAB, human recombinant protein (human, UniProt P02511 1-175).
T4 sequence (looked up): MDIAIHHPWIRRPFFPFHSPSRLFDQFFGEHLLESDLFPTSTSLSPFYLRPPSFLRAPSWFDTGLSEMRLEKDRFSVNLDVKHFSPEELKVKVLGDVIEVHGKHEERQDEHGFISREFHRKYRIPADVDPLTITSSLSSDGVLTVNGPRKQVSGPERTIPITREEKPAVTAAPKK

In another test the target is desmin (human, UniProt P17661 1-470).
desmin, sequence (P17661 whole entry): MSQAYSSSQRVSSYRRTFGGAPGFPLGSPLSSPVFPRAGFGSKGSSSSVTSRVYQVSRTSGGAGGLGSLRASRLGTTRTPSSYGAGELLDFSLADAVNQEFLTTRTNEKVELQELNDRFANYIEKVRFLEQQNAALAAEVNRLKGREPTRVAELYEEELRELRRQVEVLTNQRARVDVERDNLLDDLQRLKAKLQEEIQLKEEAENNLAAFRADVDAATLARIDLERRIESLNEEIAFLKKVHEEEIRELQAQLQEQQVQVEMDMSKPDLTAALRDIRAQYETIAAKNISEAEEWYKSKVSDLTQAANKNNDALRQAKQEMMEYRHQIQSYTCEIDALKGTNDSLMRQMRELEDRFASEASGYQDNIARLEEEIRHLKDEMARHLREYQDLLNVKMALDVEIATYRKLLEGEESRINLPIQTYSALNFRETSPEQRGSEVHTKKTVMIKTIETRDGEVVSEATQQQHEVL
In test [5] the target is heat shock cognate 71 kDa protein (human, UniProt P11142 1-646).
heat shock cognate 71 kDa protein, sequence (P11142 whole entry): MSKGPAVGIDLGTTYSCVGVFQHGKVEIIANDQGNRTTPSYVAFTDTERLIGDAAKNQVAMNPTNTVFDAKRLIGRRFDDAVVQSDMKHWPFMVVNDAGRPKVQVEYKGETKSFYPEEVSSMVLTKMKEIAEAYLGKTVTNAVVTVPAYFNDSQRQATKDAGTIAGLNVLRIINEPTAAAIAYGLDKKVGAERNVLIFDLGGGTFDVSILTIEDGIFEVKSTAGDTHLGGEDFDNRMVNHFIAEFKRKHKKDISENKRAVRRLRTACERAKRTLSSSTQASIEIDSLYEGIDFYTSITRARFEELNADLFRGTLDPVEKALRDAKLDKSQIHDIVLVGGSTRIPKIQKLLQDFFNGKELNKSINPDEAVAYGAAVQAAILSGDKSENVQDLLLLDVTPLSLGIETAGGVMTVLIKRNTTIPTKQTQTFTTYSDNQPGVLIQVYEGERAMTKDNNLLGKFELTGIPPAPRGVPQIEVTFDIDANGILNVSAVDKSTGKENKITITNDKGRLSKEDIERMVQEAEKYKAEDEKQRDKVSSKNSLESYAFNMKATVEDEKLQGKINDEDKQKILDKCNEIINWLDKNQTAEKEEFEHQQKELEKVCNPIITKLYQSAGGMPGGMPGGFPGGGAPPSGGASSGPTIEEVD
A further test concerns the target lactotransferrin (human, UniProt P02788 20-710).
Test [6] concerns the target T5, thioredoxin-dependent peroxide reductase (mitochondrial) (human, UniProt P30048 62-256).
T5 sequence (looked up): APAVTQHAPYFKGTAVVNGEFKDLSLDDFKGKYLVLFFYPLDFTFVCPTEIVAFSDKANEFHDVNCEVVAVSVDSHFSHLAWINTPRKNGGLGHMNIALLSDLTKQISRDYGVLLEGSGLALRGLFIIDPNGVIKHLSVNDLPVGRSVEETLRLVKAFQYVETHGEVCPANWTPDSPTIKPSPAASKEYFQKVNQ

For test [7], the target named is BAG family molecular chaperone regulator 3 (human, UniProt O95817 1-575).
BAG family molecular chaperone regulator 3, sequence (O95817 whole entry): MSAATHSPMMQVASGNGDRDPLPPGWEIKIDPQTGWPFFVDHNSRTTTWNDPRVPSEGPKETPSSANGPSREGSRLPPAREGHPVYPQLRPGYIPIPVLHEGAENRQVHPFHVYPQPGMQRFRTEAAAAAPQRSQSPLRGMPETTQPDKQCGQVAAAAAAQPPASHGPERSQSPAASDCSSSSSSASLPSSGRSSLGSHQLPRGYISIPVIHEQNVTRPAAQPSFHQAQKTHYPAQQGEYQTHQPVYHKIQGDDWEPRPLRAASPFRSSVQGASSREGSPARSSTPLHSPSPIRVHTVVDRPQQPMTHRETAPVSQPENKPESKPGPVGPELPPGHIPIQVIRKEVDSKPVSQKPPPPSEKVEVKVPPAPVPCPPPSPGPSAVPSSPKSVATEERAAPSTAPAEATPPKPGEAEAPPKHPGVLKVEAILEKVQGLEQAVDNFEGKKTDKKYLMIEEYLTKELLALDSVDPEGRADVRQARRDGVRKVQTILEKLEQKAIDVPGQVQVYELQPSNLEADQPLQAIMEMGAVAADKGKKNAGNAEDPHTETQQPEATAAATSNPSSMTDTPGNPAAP
Test [8] has as its target T6, complement component 1 Q subcomponent-binding protein (mitochondrial) (human, UniProt Q07021 74-282).
T6 sequence (looked up): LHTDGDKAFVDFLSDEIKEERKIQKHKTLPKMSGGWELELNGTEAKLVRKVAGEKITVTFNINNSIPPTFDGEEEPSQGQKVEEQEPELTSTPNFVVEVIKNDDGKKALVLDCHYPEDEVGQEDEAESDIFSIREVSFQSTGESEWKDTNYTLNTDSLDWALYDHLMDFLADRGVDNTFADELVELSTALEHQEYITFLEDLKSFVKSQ

The target of a further test is T7, annexin A1 (human, UniProt P04083 1-346).
T7 sequence (looked up): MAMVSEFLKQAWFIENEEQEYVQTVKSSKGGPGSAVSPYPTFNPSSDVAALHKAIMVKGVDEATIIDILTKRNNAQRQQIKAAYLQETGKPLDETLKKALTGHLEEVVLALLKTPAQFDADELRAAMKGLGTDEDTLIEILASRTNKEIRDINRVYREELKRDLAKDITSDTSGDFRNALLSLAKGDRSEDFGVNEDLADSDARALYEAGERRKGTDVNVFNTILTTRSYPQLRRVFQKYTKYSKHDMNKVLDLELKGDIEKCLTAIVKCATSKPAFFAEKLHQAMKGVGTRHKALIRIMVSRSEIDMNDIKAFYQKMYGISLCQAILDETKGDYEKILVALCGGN

The target in test [9] is HSP27, human recombinant protein (human, UniProt P04792 1-205).
HSP27, human recombinant protein, sequence (P04792 whole entry): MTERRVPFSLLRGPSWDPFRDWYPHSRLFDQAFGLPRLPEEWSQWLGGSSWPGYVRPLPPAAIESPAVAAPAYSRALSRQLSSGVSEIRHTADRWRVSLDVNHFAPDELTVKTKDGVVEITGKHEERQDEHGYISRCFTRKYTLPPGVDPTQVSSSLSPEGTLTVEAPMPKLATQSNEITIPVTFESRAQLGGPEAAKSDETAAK
For test [10], the target named is peptidyl-prolyl cis-trans isomerase B (human, UniProt P23284 34-216).
peptidyl-prolyl cis-trans isomerase B, sequence (P23284 34-216): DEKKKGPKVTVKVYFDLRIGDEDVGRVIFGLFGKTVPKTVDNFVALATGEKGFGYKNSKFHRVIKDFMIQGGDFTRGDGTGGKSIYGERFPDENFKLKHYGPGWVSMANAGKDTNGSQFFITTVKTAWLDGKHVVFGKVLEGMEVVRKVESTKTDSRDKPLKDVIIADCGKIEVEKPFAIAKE

lactotransferrin, sequence (P02788 20-710): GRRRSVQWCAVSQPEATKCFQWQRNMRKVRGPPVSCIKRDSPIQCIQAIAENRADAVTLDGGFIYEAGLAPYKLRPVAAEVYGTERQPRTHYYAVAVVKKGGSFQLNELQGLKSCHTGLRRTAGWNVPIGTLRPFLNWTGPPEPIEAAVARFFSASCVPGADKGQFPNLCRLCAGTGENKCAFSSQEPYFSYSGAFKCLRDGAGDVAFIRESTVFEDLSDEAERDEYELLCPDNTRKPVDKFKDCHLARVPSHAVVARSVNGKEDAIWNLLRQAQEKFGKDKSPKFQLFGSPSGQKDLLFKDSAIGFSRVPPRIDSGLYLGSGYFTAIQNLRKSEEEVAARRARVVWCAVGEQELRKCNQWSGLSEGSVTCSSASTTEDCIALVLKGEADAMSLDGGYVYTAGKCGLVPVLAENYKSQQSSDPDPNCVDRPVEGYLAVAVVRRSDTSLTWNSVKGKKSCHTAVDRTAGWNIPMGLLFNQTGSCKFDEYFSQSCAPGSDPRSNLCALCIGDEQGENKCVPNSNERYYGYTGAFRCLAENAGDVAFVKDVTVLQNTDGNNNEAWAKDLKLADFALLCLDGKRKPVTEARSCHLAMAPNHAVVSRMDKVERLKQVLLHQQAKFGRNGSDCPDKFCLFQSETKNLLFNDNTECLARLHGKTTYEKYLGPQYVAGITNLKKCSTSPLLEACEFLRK

B1: CLRGFQRVC-displaying phage (peptide)
peptide: CLRGFQRVC
modifications: disulfide 1-9
Consider B1, for which, in test [1], the binding result was “binds”.

B2: CPTFFAVPC-displaying phage (peptide)
peptide: CPTFFAVPC
modifications: disulfide 1-9
As for B2, the binding result in the test with calumenin is reported as “binds”.

B3: CKWEGLDMAC-displaying phage (peptide)
peptide: CKWEGLDMAC
modifications: disulfide 1-10; also: displayed on phage
On to B3, for which the binding result in test [2] is reported as “binds”.

B4: CVLRFFSSC-displaying phage (peptide)
peptide: CVLRFFSSC
modifications: disulfide 1-9
In the case of B4, in [3], the binding result is recorded as “binds”.

B5: CRPARVRGAC-displaying phage (peptide)
peptide: CRPARVRGAC
modifications: disulfide 1-10
Take B5: the binding result in test [4] was “binds”.

B6: CSRAKGRGAC-displaying phage (peptide)
peptide: CSRAKGRGAC
modifications: disulfide 1-10
Consider B6, for which the binding result with desmin is “binds”.

B7: CLNVSGRSC-displaying phage (peptide)
peptide: CLNVSGRSC
modifications: disulfide 1-9
Consider B7, for which, in [5], the binding result is listed as “binds”.

B8: CGILGPWMAC-displaying phage (peptide)
peptide: CGILGPWMAC
modifications: disulfide 1-10
In the case of B8, the binding result with lactotransferrin was “binds”.

B9: CTESFQKHLC-displaying phage (peptide)
peptide: CTESFQKHLC
modifications: disulfide 1-10
As to B9, the binding result in [6] is reported as “binds”.

B10: CEGKEDMQGC-displaying phage (peptide)
peptide: CEGKEDMQGC
modifications: disulfide 1-10
As to B10, in [7], the binding result is “binds”.

B11: CLRGFPALVC-displaying phage (peptide)
peptide: CLRGFPALVC
modifications: disulfide 1-10
B11: in test [1], the binding result is “binds”.

B12: CRGFVRGSC-displaying phage (peptide)
peptide: CRGFVRGSC
modifications: disulfide 1-9
B12: the binding result in [4] is on record as “binds”.

B13: CSRGSPDARC-displaying phage (peptide)
peptide: CSRGSPDARC
modifications: disulfide 1-10
In the case of B13, the binding result in [8] is listed as “binds”.

B14: CHKPPNFGSC-displaying phage (peptide)
peptide: CHKPPNFGSC
modifications: disulfide 1-10
On to B14, for which, in the test with annexin A1, the binding result is recorded as “binds”.

B15: CLVSGRSRC-displaying phage (peptide)
peptide: CLVSGRSRC
modifications: disulfide 1-9
Turning to B15, the binding result in [9] was “binds”.

B16: CASAVPISC-displaying phage (peptide)
peptide: CASAVPISC
modifications: disulfide 1-9
For the molecule B16, in test [10], the binding result is “binds”.
